Measurements reported in paper PMC2675908, “Direct Observation of ATP-Induced Conformational Changes in Single P2X4 Receptors” (PLOS Biology, 2009).

Target: the molecule itself
Experiment: native gel or EMSA; native PAGE, 4%-13% acrylamide gradient gel, sample buffer with 1% deoxycholate, silver staining; purified P2X4R

B1: rat P2X4 receptor (receptor, UniProt P51577 1-388, looked up)
chain: MAGCCSVLGSFLFEYDTPRIVLIRSRKVGLMNRAVQLLILAYVIGWVFVWEKGYQETDSVVSSVTTKAKGVAVTNTSQLGFRIWDVADYVIPAQEENSLFIMTNMIVTVNQTQSTCPEIPDKTSICNSDADCTPGSVDTHSSGVATGRCVPFNESVKTCEVAAWCPVENDVGVPTPAFLKAAENFTLLVKNNIWYPKFNFSKRNILPNITTSYLKSCIYNAQTDPFCPIFRLGTIVEDAGHSFQEMAVEGGIMGIQIKWDCNLDRAASLCLPRYSFRRLDTRDLEHNVSPGYNFRFAKYYRDLAGKEQRTLTKAYGIRFDIIVFGKAGKFDIIPTMINVGSGLALLGVATVLCDVIVLYCMKKKYYYRDKKYKYVEDYEQGLSGEMNQ
notes: P2X4 receptor (P2X purinoceptor 4), rat; cDNA encoding rat P2X4R subcloned into pcDNA3.1; Homotrimer by native PAGE (about 150 kDa; monomer about 50 kDa in SDS-PAGE) and by AFM; No tag is mentioned; 1321N1 cells are said not to express P2XRs of their own; also called P2X4Rs; source: human 1321N1 astrocytoma cells, stably transfected (pcDNA3.1)
B1 was tested, and the “stoichiometry N” value was 3.
